What was measured:
murine ApoE = target: T1, murine ApoE (mouse, UniProt P08226 19-311); experiment: Western blot of mouse brain lysates
T1 sequence (looked up): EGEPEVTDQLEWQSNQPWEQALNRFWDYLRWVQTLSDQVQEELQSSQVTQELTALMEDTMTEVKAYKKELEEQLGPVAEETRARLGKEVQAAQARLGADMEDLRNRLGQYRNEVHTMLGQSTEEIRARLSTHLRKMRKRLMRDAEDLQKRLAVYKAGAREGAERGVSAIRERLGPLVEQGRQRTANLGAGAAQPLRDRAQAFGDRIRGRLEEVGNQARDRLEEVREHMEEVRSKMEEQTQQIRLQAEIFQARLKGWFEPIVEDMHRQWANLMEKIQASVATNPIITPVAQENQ
From the text: Brain lysates from apoE KO mice or mice expressing human apoE3, human apoE4 or murine apoE were immunoblotted with HJ151, HJ152, HJ153, and HJ154. A commercial apoE antibody GA-50 was used as a positive control.

[1] = target: T2, recombinant alipidated human ApoE3 (human, UniProt P02649 19-317); experiment: ELISA: untreated ApoE3 coated at 0.5 ug/ml, antibody titrated, HRP goat anti-mouse IgG, OD650
T2 construct: mature; full length recombinant protein made in E. coli or bought
Procedure: The aggregated ApoE was induced by incubating ApoE at 1 mg/ml concentration at 40° C. for 24 hours. The aggregates then were recovered in the pellet fraction following ultracentrifugation at 186,000 g for 1 hour. For ELISA, the untreated ApoE or heat-induced aggregates of ApoE were coated directly to ELISA plates at 0.5 μg/ml overnight at 4° C. After three washes with PBS, the wells were blocked with 1% BSA-PBS for 1 hour at room temperature with shaking at 500 rpm. The blocked wells were washed once with PBS and subsequently loaded with antibodies at serial concentrations (starting at 100 nM with 5-fold dilutions thereafter). Bound antibodies were detected with HRP-labeled goat anti-mouse IgG (Jackson Immunoresearch) and visualized with TMB substrate at OD₆₅₀ (reaction stopped with BioFX stop solution).
Target sequence in this assay (P02649 19-317): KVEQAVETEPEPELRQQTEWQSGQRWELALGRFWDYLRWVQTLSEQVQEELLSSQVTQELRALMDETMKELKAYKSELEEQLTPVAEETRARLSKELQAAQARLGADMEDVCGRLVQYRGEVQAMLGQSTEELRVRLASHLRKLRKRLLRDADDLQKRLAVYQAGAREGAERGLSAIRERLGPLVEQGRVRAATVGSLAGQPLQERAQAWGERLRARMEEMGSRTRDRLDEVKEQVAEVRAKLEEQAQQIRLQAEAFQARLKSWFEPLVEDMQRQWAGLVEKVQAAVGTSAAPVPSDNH

[2] = target: T3, recombinant alipidated human ApoE2 (human, UniProt P02649 19-317); experiment: ELISA, plate coated with 0.5 ug/ml recombinant apoE2, HRP goat anti-mouse detection, OD450
T3 construct: mature; full length recombinant protein made in E. coli or bought
Procedure: (§1) ELISA plates were coated with 0.5 μg/ml of recombinant apoE2 (square), apoE3 (open circle), or apoE4 (closed circle). Then different concentrations of (A) HJ151, (B) HJ153, (C) HJ154, or (D) HJ156 were loaded on the plates. Horse-radish peroxidase labeled goat anti-mouse secondary antibodies were used to detect binding. […] HJ151 is specific for ApoE4 and HJ156 binds only ApoE3 and ApoE4. FIG. 5E-H are graphs depicting surface plasmon resonance profiles for various antibodies. Anti-ApoE antibodies were serially diluted 3-fold (starting at 100 nM for HJ153 (E), and 1000 nM for HJ151 (F), and […] (G)) for detection of binding to biotinylated-recombinant apoE4 captured on a streptavidin chip. Samples were injected at a flow rate of 30 μl/minute. (H) Apparent KD values of HJ151, HJ153 and HJ156 were calculated based on the SPR experiment.
(§2) ELISA plates were coated with 0.5 μg/ml of recombinant apoE2, apoE3, or apoE4. Then different concentrations of HJ151 (FIG. 5A), HJ153 (FIG. 5B), HJ154 (FIG. 5C), or HJ156 (FIG. 5D) were loaded on the plates. Horse-radish peroxidase labeled goat anti-mouse secondary antibodies were used to detect binding. […] HJ151 is specific for ApoE4 and HJ156 binds only ApoE3 and ApoE4. Surface plasmon resonance profiles for various antibodies was also performed.

[3] = target: T4, heat-induced aggregates of ApoE4 (human, UniProt P02649 19-317); experiment: ELISA: ApoE4 incubated at 40 C for 24 hr on the plate, antibody titrated, OD650
T4 construct: mature; aggregated state of the recombinant protein; also called ApoE4 incubated at 40 C for 24 hr; heat-treated ApoE4
Procedure: (§3) 1: untreated ApoE4. 2: ApoE4 that has been incubated at 40° C. for 24 hr. Supernatant(S) and pellet (P) from ultracentrifugation were resolved on SDS-PAGE and stained by Coomassie blue. (D) Binding of HJ156 to different preparations of ApoE4 loaded at the same concentration on the ELISA plate. Sup of untreated: Supernatant fraction of untreated ApoE4 from ultracentrifugation. Sup/Pel of 24h 40C: Supernatant/pellet fraction of ApoE4 incubated at 40° C. for 24 hour. (E) Binding of HJ156 to untreated and 40° C. incubated ApoE4 with and without denaturation by 1% SDS or 4M guanidine HCl.
(§4) In order to test whether HJ151 and HJ156 bind to some form of ApoE in the brain, unfixed frozen brain sections from APPPS1/APOE4 or APPPS1/EKO mice using HJ151 and HJ156 (FIG. 38A). The presence of Aβ plaques was confirmed with Aβ immunostaining using anti-Aβ antibody HJ3.4 on the sections from the same brain. […] Next, the ability of HJ156 to bind to an aggregated form of ApoE induced by incubation at 40° C. was queried. The binding of untreated ApoE to HJ151, HJ153 or HJ156 was compared to the binding of ApoE incubated at 40° C. to HJ151, HJ153 or HJ156. HJ153 bound to untreated ApoE or ApoE incubated at 40° C. similarly while HJ151 and HJ156 preferentially bound to ApoE incubated at 40° C. (FIG. 38B). […] Solubilization of the ApoE aggregates reduced their binding to HJ156. […]

[4] = target: T2, recombinant alipidated human ApoE3; experiment: ELISA, plate coated with 0.5 ug/ml recombinant apoE3, HRP goat anti-mouse detection, OD450
Procedure: as §1, §2

[5] = target: T4, heat-induced aggregates of ApoE4; experiment: ELISA: total ApoE4 incubated at 40 C for 24 h loaded on the plate, HJ156 titrated, OD650
Target sequence in this assay (P02649 19-317 C130R): as the sequence (P02649 19-317) above, with C112R counted along it

[6] = target: T4, heat-induced aggregates of ApoE4; experiment: ELISA: ApoE4 incubated at 40 C for 24 h, no denaturant, on the plate, HJ156 titrated, OD650
Procedure: as §3, §4
Target sequence in this assay (P02649 19-317 C130R): as the sequence (P02649 19-317) above, with C112R counted along it

B1: HJ154 (antibody, V domains shown)
VH: QVQLQQPGTEFVMSGASVMLSCKASGYIFTNYWLHWVKQRPGHGLEWIGEIDPSDSYSICNDNFKGKSTLTVDKSSSTAYMQLSSLTSEDSAVYYCAGSLGRVGLAYWGQGTLVTVST
VL: QIVLTQSPAIMSASPGEKVTMSCSASSSVSNMYWYQQKPGSSPKSWIYRTSNLASGVPARFSGSGSGTSYSLTISNMEAEDAATYYCQHYQNYPLTFGAGTKLELKR
notes: murine monoclonal antibody from hybridoma; also called HJ154B (biotinylated)
Q: Does B1 bind (murine ApoE)?
A: Result: no binding

Q: What about the “EC50 (read off the curve)” value [1] of the same binder?
A: The value was roughly 0.5 nM.

Q: And the “EC50 (read off the curve)” value [2]?
A: The value was roughly 0.3 nM.

B2: HJ151 (antibody, V domains shown)
VH: QVQLQQSGAELVRPGASVTLSCKASGYTFTDYEMHWVKQTPVHGLEWIGVIDPEKGGTAYNQKFKGKAILTADKSSSTAYMDLRSLTSEDSAVYYCLKDSWGQGTTLTVSS
VL: DVLMTQTPLSLPVSLGDQASISCRSSQTIVHSDGNTYLEWYLQKPGQSPKLLIYKVSNRFSGVPDRFSGSGSGTYFTLKISRVEAEDLGVYYCFQGSHVPCTFGGGTKLEIKR
notes: murine monoclonal antibody from hybridoma; also called HJ151B (biotinylated)
Q: How did the “EC50 (read off the curve)” value [3] turn out when B2 was run?
A: Its value is roughly 0.2 nM.

B3: HJ156 (antibody, V domains shown)
VH: QVQLQQSGPELVKPGASVKISCKASGYIFTDYYINWVKRRPGQGLEWIGWIFPGSGVSYYNEQFKGKATLTVDKPSNTAYIFLSRLTSEDSAVYFCARYYSSSPFAYWGQGTLVTVSA
VL: DVLMTQTPLSLPVSLGDQASISCRSSQNIIHSNGNTYLEWFLQRPGQSPELLIYKVSNRFSGVPDRFSGSGSGTDFTLKISRVEAEDLGVYYCFQGSHVPYTFGGGTKLEIKR
notes: murine monoclonal antibody from hybridoma; also called HJ156B (biotinylated)
Q: Which “EC50 (read off the curve)” value [4] does the source give for B3 here?
A: The value was roughly 0.9 nM.

Q: What about the “EC50 (read off the curve)” value [5] of the same binder?
A: The value was roughly 0.1 nM.

Q: And the “EC50 (read off the curve)” value [6]?
A: The value was roughly 0.1 nM.

Source: patent US20250145697A1 (WASHINGTON UNIVERSITY, published 2025)
